Patent US8796201B2 (The Board of Trustees of the Leland Stanford Junior …, priority 2002, dated 2014)

Tests used:
[1] = Double-blind crossover gluten challenge: daily symptom questionnaire; type: in vivo, human (Celiac Sprue patients); conditions: PEP Stage, 20 patients
From the text: Subjects and protocols: This study was approved by the Institutional Review Board of the Palo Alto Medical Foundation in Palo Alto, Calif., and all participants in the study were counseled regarding risks and signed an informed consent document. 22 patients were recruited who were in symptomatic remission on a gluten-free diet. Two patients dropped out of the study, one near the end of the first stage and the other prior to the second stage. The 20 patients who completed the study included 7 men and […] aged 21 to 78 (mean age 49). The time since diagnosis for the 20 patients ranged from 3 months to 18 years (mean 6 years). […] The serum anti-gliadin IgA antibodies and anti-tissue transglutaminase IgA and IgG antibodies were measured by an enzyme linked immunosorbent assay (ELISA) kit (INOVA Diagnostics, Inc., San Diego, Calif.). […] Total serum IgA levels were determined by an Integra instrument (Roche) (normal <81 mg/dl). […] The 25 g D-xylose 5-hour urine excretion test and the 72-hour quantitative fecal fat test were measured at baseline and on Day 15. […] For the 72 h quantitative fecal fat test, patients were instructed to consume a diet containing 80-100 g fat per day during the collection. The fecal fat excretion was determined by a gravimetric method. […]

[2] = Double-blind crossover gluten challenge: 25 g D-xylose 5-hour urine excretion test; type: in vivo, human (Celiac Sprue patients)
From the text: It was first established that a low-dose, short-term (5-10 g/day for 14 days) gluten oral supplement induces fat and carbohydrate malabsorption when given to asymptomatic Celiac Sprue patients on an otherwise gluten free diet. This protocol was modified to examine the effect of gluten pre-treated with pepsin, trypsin and chymotrypsin (PTC-Gluten) as compared to PTC-Gluten additionally treated with PEP (PTC-Gluten+PEP). In this study, Celiac patients maintaining a gluten-free diet ingested a supplement of 5 g/day gluten as PTC-Gluten or PTC-Gluten+PEP in an orange-lemon juice vehicle for 14 days in a double-blind crossover manner. A 6-week washout interval between individual arms of the crossover trial allowed patients to recover completely from the effects, if any, of the test material in the first arm.
Subjects and protocols: This study was approved by the Institutional Review Board of the Palo Alto Medical Foundation in Palo Alto, Calif., and all participants in the study were counseled regarding risks and signed an informed consent document. 22 patients were recruited who were in symptomatic remission on a gluten-free diet. Two patients dropped out of the study, one near the end of the first stage and the other prior to the second stage. The 20 patients who completed the study included 7 men and […] aged 21 to 78 (mean age 49). The time since diagnosis for the 20 patients ranged from 3 months to 18 years (mean 6 years). Patients provided copies of their initial small-intestinal biopsy pathology report and laboratory reports documenting a history of at least one positive celiac antibody (gliadin, endomysial or transglutaminase) to verify a diagnosis of Celiac Sprue. They also completed an entry questionnaire inquiring about their medical history, adherence to the gluten-free diet, and current symptoms. The format of the study was a double-blinded crossover in which each patient consumed either a low daily dose of a gluten supplement (5 g; equivalent of one-half slice of bread) that was predigested with pepsin, trypsin and chymotrypsin alone (PTC-Gluten) or PTC-Gluten treated with prolyl endopeptidase (PTC-Gluten+PEP). The PEP in the latter orange juice mixture was completely inactivated through a heating process following proteolysis of the gliadin peptides. […]
Studied variables: During each stage of the study, patients completed a daily questionnaire inquiring about symptoms and their adherence to the gluten-free diet. […] The serum anti-gliadin IgA antibodies and anti-tissue transglutaminase IgA and IgG antibodies were measured by an enzyme linked immunosorbent assay (ELISA) kit (INOVA Diagnostics, Inc., San Diego, Calif.). […] Total serum IgA levels were determined by an Integra instrument (Roche) (normal <81 mg/dl). […]

[3] = All patients with full xylose data (N = 14)
[4] = Subgroup with normal (>4 gm/5 hrs) Pre-stage Xylose (N = 10)

B1: PEP: prolyl endopeptidase; Examples 1-2: from Flavobacterium meningosepticum (US Biological); Example 11: source not stated (protein, UniProt P27028 21-705, looked up)
Prolyl endopeptidase: QNSNVLKYPETKKVSHTDTYFGTQVSDPYRWLEDDRAEDTKAWVQQEVKFTQDYLAQIPFRDQLKKQLMDIWNYEKISAPFKKGKYTYFSKNDGLQAQSVLYRKDAAGKTEVFLDPNKFSEKGTTSLASVSFNKKGTLVAYSISEGGSDWNKIIILDAETKKQLDETLLDVKFSGISWLGDEGFFYSSYDKPKEGSVLSGMTDKHKVYFHKLGTKQSQDELIIGGDKFPRRYIGAYVTDDQRYLVVSAANATNGNELYIKDLKNKTDFIPIITGFDSNVNVADTDGDTLYLFTDKDAPNKRLVKTTIQNPKAETWKDVIAETSEPLEINTGGGYFFATYMKDAIDQVKQYDKNGKLVRAIKLPGSGNASGFGGEKTEKDLYYSFTNYITPPTIFKYNVTTGNSEVYQKPKVKFNPENYVSEQVFYTSSDGTKIPMMISYKKGLKKDGKNPTILYSYGGFNISLQPAFSVVNAIWMENGGIYAVPNIRGGGEYGKKWHDAGTKMQKKNVFNDFIAAGEYLQKNGYTSKEYMALSGRSNGGLLVGATMTMRPDLAKVAFPGVGVLDMLRYNKFTAGAGWAYDYGTAEDSKEMFEYLKSYSPVHNVKAGTCYPSTMVITSDHDDRVVPAHSFKFGSELQAKQSCKNPILIRIETNAGHGAGRSTEQVVAENADLLSFALYEMGIKSLK
average Total Stage Symptom Score (sum of the 14 daily symptom scores) [1]: 23 (range 4 to 82)
PEP Effective (patients / patients with positive gluten challenge), urine xylose [2, 3]: 4/8
PEP Effective, urine xylose [2, 3]: 50%
PEP Effective (patients / patients with positive gluten challenge), urine xylose [2, 4]: 3/5
PEP Effective, urine xylose [2, 4]: 60%
